Assay: soluble on expression in E. coli; label from the status in PepcDB or PDB records

| Sequence | soluble on expression in E. coli |
| --- | --- |
| LVGSRREIAARNLELCFPEKSPAERERLLKENFASSGIAFFEMAMSWWWPKARLARLAHIEGLEHLREAQAQGEGVILMALHFTTLEIGAALLGQVHTIDGMYREHDNPVFDYVQRRGRERHNLDATAIEREDVRSMLKVLRGGRAIWYAPDQDYGAKQSLFVPLFGIPAATVTATTKFARLGRARVLPFTQSRLADGSGYRLTIHPPLEDFPGESEEADCLRINQWVERCVRQQPEQYLWAHRRFKTRPPGEAK | not soluble |
| LVSGVICAAIGAVALLGTQAVLKSTNSTEFCVSCHSMTHPQAEWEGSVHFSNRKGIRAECADCHVPQDSWHYVKAKVAAVKDVWHTFVTNKIPDQEAYEKHRLEMAQHVWQDMKETDSATCRSCHSFDAMVLAEQREAAQKMHKIAQETNQTCIDCHKGIAHFMPEMPADNSAALGELAKHGGKFNSADKVLYSLAMTSAKLAQGSEIRLLPFAELHNWQEEGDKIVAVVKGWQQVGAEGVIYSGLGQRIMVGLVDDAAKDKLTVHQVVNDKVTNSDWKEVSTSVSLPKAALTADIKSLNDFGSNLNQTHCSGCHAPISANHYTA | not soluble |
| LVSITDLQGRILYANDNFCAVSRYGREELVGQDHRIVNSGYHGKAYIRDMWRTISRGNIWQGEFCNRRKDGTRYWVDSTIVPLMDNAGKPRQYISIRRDITAQKEAEAQLARLKQAMDANSEMILLTDRAGRIIYANPALCRFSGMAEGELLGQSPSILDSPLADQETLAAMQEALQAGQPWSGRLLNRRRTGPAPHDAEDYWAEISTTPIHTDGNGLVGYVQIQHD | soluble |
| MAAAVFHMEILQLNDLSSRLNPLATKNVVLHVCLGVRYFPNSACKSYKDAQALCKDGDGMSLTGPAQSMEKAFFKESVPKVDKCVIFLDGLALNHDEPYNFEFEDETHDGTKNYRFNSEDPNSQTAPNYIVFEYHVSGAHVFDRS | not soluble |
| MAADPVFKEALQCIRCASCTNVCPVFQLVSGQVYGYIYNGGIGSVLTAFFNSLEDAVDPQSLCIGCRRCAEVCPAKINIPDLVLKLRERVVTKQGLEHHHHHH | not soluble |
| MAAEFVRKFQSFSESDKQWRAREEFIIRNLNRFEDESEIDQLLALSMVWANHVFMGCRYSNELLEKVCGMAEGIVVEDAPHFTTRDEIMKQRNQ | soluble |
| MAAIDAALKAGEKILSIYEDPKSDFEIERKADNSPLTIADRKAHEAIVAILNETPFPVLSEEGKHMDYAVRRGWDTLWIVDPLDGTKEFIKRNGEFTVNIALVQNAVPVMGVIYVPVKKELYFAVEGTGAYKCSGIVGLEDEGVTLQQMIEKSERMPLADARDHFIAVASRSHLTPETETYIADLKKKHGNVELISSGSSIKICLVAEGKADVYPRFAPTMEWDTAAGHAIARAAGMEVYQAGKEEPLRYNKEDLLNPWFIVEAKRER | soluble |
| MAAKVVLDFEKPLYELEEKLNEMRVYLKSGEVDSMSEGRAGLKREIESLEAKVESLRKTIYKNLTRWQKVQLARHPERPYTLDYIYMMMKDFVELSGDRNFGDDKAIIGGFARLEDESAGFSQSVMVIGHQKGRDTKSNLYRNFGMAQPEGYRKALRLMKLAEKFRKPVITLIDTPGAFPGIEAEERGQAEAIARNLYEMAALKVPVICVIIGEGASGGAIGIGVGDRILMAENAWYSVISPESCSSILWRSWNFKEQAAEALKLTADDLLAQGIIDRIVTEPLGGAHHNPEQMASTLKSILIEELQGLLTKDARTLVDERIAKFSGMGVWEES | not soluble |
| MACAAARSPADQDRFICIYPAYLNNKKTIAEGRRIPISKAVENPTATEIQDVCSAVGLNVFLEKNKMYSREWNRDVQYRGRVRVQLKQEDGSLCLVQFPSRKSVMLYAAEMIPKLKTRTQLEHHHHHH | soluble |
| MADDSVLPSPSEITSLADSSVFDSKVAEMSKENLCLASTSNVDEEMPQVEARVIMVQDAGKQEELLKALKEMKVPCVKMDSMEEFESLDSPEFENIFVVTDFQNSVFNDLYKADCRIVGPPVILNCAQRGEPLPFSCRPLYCTSMLNLVLCFTGFRKKEELVKLVTLVHHMGGVIRKECNSKVTHLVANCTQGEKFRVAVSLGTPIMKPEWIYKAWERRNEQCFCAAVDDFRNEFKVPPFQDCILSFLGFSDEEKHSMEEMTEMQGGSYLPVGDERCTHLIVEENTVKDLPFEPSKKLFVVKQEWFWGSIQMDARAGETMYLYEKANTPELKKSVSLLSLSTPNSNRKRRRLKETLAQLSRETDLSPFPPRKRPSAEHSLSIGSLLDISNTPESSIHYGETPKSCAKSSRSSTPVPPKQSARWQVAKELYQTESNYVNILATIIQLFQVPLEEEGQRGGPILAPEEIKTIFGSIPDIFDVHMKIKDDLEDLIANWDESRSIGDIFLKYAKDLVKTYPPFVNFFEMSKEMIIKCEKQKPRFHAFLKINQAKPECGRQSLVELLIRPVQRLPSVALLLNDLKKHTADENPDKSTLEKAIGSLKEVMTHINEDKRKTEAQKQIFDVVYEVDGCPANLLSSHRSLVQRVETVSLGEHPCDRGEQVTLFLFNDCLEIARKRHKVIGTFRSPHDRTRPPASLKHIHLMPLSQIKKVLDIRETEDCHNAFALLVRPPTEQANVLLSFQMTSEELPKESWLKMLCRHVANTICKADAENLMYVADPESFEVNTKDMDSTLSRASRAIKKTSKKVTRAFSFSKTPKRALRMALSSSHSSEGRSPPSSGKLAVSRLSSTSSLAGIPSPSLVSLPSFFERRSHTLSRSTTHLI | soluble |
| MADEPLHYGEDYHFIHATSAASGLGVSVLPDLYCHTIQIVNICLVGRPDDHAFVLVDAGMPGSADDIVSVVEDRFGSGSRPQAIVLTHGHFDHVGAIVELVKHWNVPVYAHPAELPYLTGKASYPEPDASVEGGFIAKISPFFPNEPIQLGNRVQPLPADGTVPHLPEFRWIHTPGHTPGHISLFRPRDAALIAGDAFVTVRQDSLYKVLTQQIEISGPPRYYTIDWRAARESVRKLAALFPSVAITGHGAPVAGKELREGLTKLARDFDRIATPDYGKYVH | soluble |
| MADETELKRLYWHSRRGMLELDVLLVPFVQEVYPGLDAEDQARFRKLLECEDQDMFGWFMQRGEPEDADLRRMVRMILDRVQPD | not soluble |
| MADEVIEYKFICPNITIYRESLQHLYTSFAKGLKCVWKTRNTSGQTFFSWEFDLNELKNQGIDGLMGRISVNSDSIDLLNVQIDLKNSTEIIERVVHLYHNNYQYGYNYIPSATFEYSFVPYYAQAEGSLYDQMFLPSHENDAILVIGKKKLHVCKAFLSYHSSFFRAIFSSTFKEGQMSEIPIKDVTYKDFALMLSTIYPDAVFPNDRTAEKLLEMGDRFIIQSVINHVEYHLLHNTKIGNEKLMWMADRYGMSKLLVKSIRQMDSIEKAKALKSSPDYAKLSKEAKEKILDRLMALI | not soluble |
| MADGINSTVTVERSDGPRHRGTAAGIGGLDLDLEDVTHKELIEARRTGDVGLVHSWELVTAVDGPGTRMTMFMSGCPLRCLYCHNPDTMGMKEGTVERVESIVKKIKRYRNVFKASGGGLTISGGEPLFQIAFTRRVLKEVHDAGIHTTIDTSGYLGARLTDEDLENIDLVLLDVKSGDEETYHRVSGGRELQPTIDFGNRLNAIGKPVWIRFVLVPGVSDAPENINNVADIVAQWKDNVERVEVLPFHNMGADKWHELGLNYELEDTKPPTQESVEFAKETFRSRGLTVY | not soluble |
| MADKSTEVEKAIDPIIDLGNLLFIDREPIQGDASEGLEERARKNTQLLFNNIWQLEQKRVEEAIIVTLPPATYRLPREKRLPEKKEPTKWEKYAAEKGIEKRKKDKKVFDEATKEWKPTYGYRRGNDDTKDWLIEIPDNAEDPNKDFFAERREKKKERVAKNDMQRMKNLARQMKTTVKSGPSTEKMIGVGVDAKEKSKQQVRFAVDRAKLATASAGKFQEGLKGEKANVKTGKKRKFEANEAPVSGEKERALQILQRMKSKKAKIVEEKAAAVAGPLREKKEKSERKGAKDQTRQKSQIHRQQWFKNKVDGKKKGTGGAGKKGANKAKARKG | not soluble |
| MADRANNDDDVDRQPLPIADDADDDVDGIDEMFNNEDEDPEDEEGENLFGDDMERDYREQPELDQYSESGMDDASDVGSLSVSARRAAEREMAQRDQLLDDDALMYEDGDSEEVDTRRRGRGRRGRGDAADDDSVPMEEEDIPVDILENIRGRTIRDHVSDEAVAKEIERRFKNFLRSFHEPGNKQTKYIQMIKSMAADNRESLEVSFTDLSDDNGEQNISYFLPEAPNEMLAIMDRAATEVVMNMYPFYSRVCNEIKVRISQLPVEEDIRMLRQVHLNMLIRTAGVVTIASGILPQLAVVKYDCVACGYLLGPFVQQNDEEVRPTICPSCQGKGPFELNVENTVYHNYQRITMQESPNKVAAGRLPRSKDVILLGDLCDSCKPGDEIEVTGVYTNNFDGSLNYKQGFPVFNTLIHANHITNKDKMASDQLTDEDIKAIRELSQDPNISQRVFSSIAPSIYGHDDVKRAIALALFRGEAKNPGAKHRLRGDINVLLCGDPGTAKSQFLRYAAHIAPRSVLTTGQGASAVGLTAYVQRHPVTREWTLEAGAMVLADKGVCLIDEFDKMSDQDRTSIHEAMEQQSISISKAGIVTSLHARCTVIAASNPIGGRYNPTRTFAENVDLTEPILSRFDVLCVIRDSVDSVEDERLAKFVVGNHRTHHPDAKKIVKEGDELEEDQMDERTGVRLIPQDLLRKYIIYAREKCHPTLPEQHSEKFSNIFAQMRKESMATGSVAITVRHVESMIRLSEAHAKLHLRSYVNDEDCAAAIRVMLESFVNTQKASIMRMMKKTFSRHLTENRSANELLLFILKQLIRQQMHYATARAAAGTILQSVTIPESEFIEKAQQLRIENVKPFYTSEIFASNNFLYDPSKKTIVQEIF | not soluble |
| MADRGGFQSGFGGRGGGRGGARPAGDRPAGRGGRGGRGGRGGRGGRAGRGGEKETEWTPVTKLGRLVKEKKITTLEEIYLNSLPIKEFEIIDALCSNLKDEVLKISPVQKQTTAGQRTRFKAFVAIGDHAGHVGLGVKCSKEVATAIRGAIVAAKLAVVPVRRGYWGNKIGLPHTVPCKVTGKCASVMVRLIPAPRGTGIVSAPVPKKLLHMAGIEDCYTAAKGSTATLGNFAKATYAALQRTYSYLTPDLWKEEALEKSPYQRHHEYLARN | not soluble |
| MADRPIEIVDRQNVLTVHLPGTYTVMYDARYCYVSYIPVSETVAEFTLTGFKYPLTNCHISRGSTLCISNELIQSSGTFSFSEGILMMIRSSDSLEHHHHHH | not soluble |
| MADRRRTDDNKGAREVVLLLNIGSPDSPEEKDVARYLNSFLTDRRIITLPFLLRQLLVRGIITPFRKKSSAQKYRTVWDESTRSFPLISHTKAIARALAHTGREVHVAMRYGKPAVADVLKELPHGRSLVVLPLFPHYAMSSYETAVEHCKAEIRRLCPNLSFRVVQPFYAHEAYIRVLADNIRPYLTKPFDKLILSYHGIPRDHLDKTTRQALNLRHPEGCCTEEDPTANVCYRYQTYRTTALIREALGLAEEQVEQVFQSRVGHTEWLRPYLIERLSAWPQEETKRILIACPSFVCDCLESLEEVADHGQSIFKKAGGADFTYIPCLNSGANWIDALRNILEE | not soluble |
| MADSIASIGNRYIDNNDTDMHFLRTWAVRRCQHTDWDICERIRLGELKEARDRAAQMEKTMRWWSSCTADWRNRWSAVRDERNRAREEAETLRLNYDLLLEEKRFLAEQLYHVDSESDEPKLEISQKPEIDGTKRNAVVQTIHSISCDPPSILVKSYSAAQIEAVLREPSVDEPPVETTKSDINEELKAENEFLKDQANELNKCREKIETDGKTIQDLRLRIQSMERELMAAKNSKRASSS | not soluble |

Source: the DeepSol protein solubility set
